# Reference: patent publication US20210403565A1 (BIOATLA, published 2021)
# T1: recombinant cynomolgus CTLA4 extracellular domain (cynomolgus, UniProt G7PL88 36-161)
# T1 construct: extracellular domain; also called cynoCTLA-4; cynoCTLA4
# T1 sequence: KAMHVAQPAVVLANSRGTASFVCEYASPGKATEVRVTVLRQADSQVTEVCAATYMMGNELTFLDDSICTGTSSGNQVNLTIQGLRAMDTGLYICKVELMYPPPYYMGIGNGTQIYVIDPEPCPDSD
# T2: cynomolgus CTLA4 expressed on the cell surface of CHO cells (cynomolgus, UniProt G7PL88 36-223)
# T2 construct: whole, on cells; also called CHO-cynoCTLA4
# T2 sequence: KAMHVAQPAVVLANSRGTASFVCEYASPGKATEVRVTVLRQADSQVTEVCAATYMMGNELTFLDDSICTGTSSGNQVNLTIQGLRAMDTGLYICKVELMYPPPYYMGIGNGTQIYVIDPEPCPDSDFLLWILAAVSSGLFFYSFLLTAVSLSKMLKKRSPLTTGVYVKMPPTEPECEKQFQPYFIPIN
# T3: recombinant human CTLA4 extracellular domain (human, UniProt P16410 36-161)
# T3 construct: extracellular domain; also called huCTLA-4
# T3 sequence (looked up): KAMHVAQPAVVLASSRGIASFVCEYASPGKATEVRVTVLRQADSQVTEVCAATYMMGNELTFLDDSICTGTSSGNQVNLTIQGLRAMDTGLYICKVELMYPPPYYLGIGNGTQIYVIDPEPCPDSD
# T4: human CTLA4 expressed on the cell surface of CHO cells (human, UniProt P16410 36-223)
# T4 construct: whole, on cells; also called CHO-huCTLA4; huCTLA4
# T4 sequence (looked up): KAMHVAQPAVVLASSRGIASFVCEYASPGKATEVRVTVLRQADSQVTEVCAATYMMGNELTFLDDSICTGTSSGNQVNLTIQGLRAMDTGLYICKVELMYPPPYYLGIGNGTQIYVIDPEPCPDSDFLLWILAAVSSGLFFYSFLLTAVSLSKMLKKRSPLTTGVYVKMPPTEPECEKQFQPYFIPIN
# Assays:
# [1] = target: T1, recombinant cynomolgus CTLA4 …; assay: SPR, cynomolgus CTLA4 ECD immobilised, pH 6.0, equilibrium fit; SPR, pH 6.0
# Protocol: (§1) The CTLA4 extracellular domain (human or cynomolgus) was immobilized on the surface of a sensor chip. […] The binding kinetics were calculated using a 1:1 Longmuir model built into the analysis software.
# The KD was calculated by plotting the maximum SPR signal at each concentration against the antibody concentration. Experiments were run in triplicate at each pH.
# [2] = target: T2, cynomolgus CTLA4 expressed on the cell …; assay: FACS on CHO-cynoCTLA4 cells, pH 6.0, mean
# Protocol: The amount of antibodies bound on the cells was quantified using anti-human IgG antibody conjugated to fluorophores. EC₅₀ values at pH 6.0 and 7.4 for binding to cells were calculated using the nonlinear fit (variable slope, four parameters) model built into GraphPad Prism software (version 7.03). The expression levels of human CTLA4 or cynomolgus CTLA4 on the surface of the CHO cells were determined using a BD QuantiBRITE™ PE kit.
# [3] = target: T3, recombinant human CTLA4 extracellular …; assay: ELISA, immobilised huCTLA-4, pH 6.0, mean +/- SD
# Protocol: EC₅₀ values at pH 6.0 for binding to human CTLA4 were calculated using the nonlinear fit model (variable slope, four parameters) of GraphPad Prism version 7.03.
# [4] = target: T3, recombinant human CTLA4 extracellular …; assay: SPR, human CTLA4 ECD immobilised, pH 6.0, run 1
# Protocol: as §1
# [5] = target: T3, recombinant human CTLA4 extracellular …; assay: ELISA, wells coated with human CTLA4, assay pH 6.0; lot 6978 in Tris buffer, T2W; unit from the axis Log[ng/mL]
# Protocol: (§2) Both ELISA and FACS analysis were used to measure the binding activity. […] The amount of bound antibodies was quantified using anti-human IgG antibody conjugated to HRP. The absorbance at 450 nm in each measurement was proportional to the amount of antibodies bound. […] EC50 value (in ng/mL) for binding to human CTLA4 was determined by absorbance at 450 nm against antibody concentration with Prism variable slope of four-parameter dose-response curve, which was calculated using the nonlinear fit (variable slope, four parameters) model built into GraphPad Prism software (version 7.03). The buffers tested included His buffer (His), Tris buffer (Tris), Glutamine buffer (Glu) and no buffer.
# [6] = target: T4, human CTLA4 expressed on the cell …; assay: FACS competition on CHO-huCTLA4: antibody titrated against a fixed concentration of hB7-1 (hCD80), bound hB7-1 detected, % competition, plateau about 97 %; pH 6.0 per the text; unit from the axis CTLA4 Ab concentration Log(ng/mL)
# [7] = target: T3, recombinant human CTLA4 extracellular …; assay: ELISA, wells coated with human CTLA4, assay pH 7.4; lot 6978 without test buffer; curve still rising at log 3 (OD450 about 0.2), no plateau; same column repeated in FIG. 9E and FIG. 9F; unit from the axis Log[ng/mL]
# Protocol: as §2
# [8] = target: T3, recombinant human CTLA4 extracellular …; assay: ELISA, wells coated with human CTLA4, assay pH 6.0; lot 6978 in Glu buffer, T2W; unit from the axis Log[ng/mL]
# Protocol: as §2
# [9] = target: T4, human CTLA4 expressed on the cell …; assay: FACS competition on CHO-huCTLA4: antibody titrated against a fixed concentration of hB7-2 (hCD86), bound hB7-2 detected, % competition, plateaus about 48 to 57 %; pH 6.0 per the text; unit from the axis CTLA4 Ab concentration Log(ng/mL)
# [10] = target: T3, recombinant human CTLA4 extracellular …; assay: SPR, human CTLA4 ECD immobilised, pH 7.4, AVG
# Protocol: as §1
# [11] = target: T3, recombinant human CTLA4 extracellular …; assay: ELISA, wells coated with human CTLA4, assay pH 7.4; lot 6972 in His buffer, T2W; unit from the axis Log[ng/mL]
# Protocol: as §2
Binder,Kd [1] [nM],EC50 [2] [µg/mL],EC50 [3] [ng/mL],Kd [4] [nM],koff [4] [s⁻¹],kon [4] [M⁻¹ s⁻¹],EC50 [5] [µg/mL],EC50 [6] [µg/mL],EC50 [7] [µg/mL],EC50 [8] [µg/mL],EC50 [9] [µg/mL],Kd [10] [nM],koff [10] [s⁻¹],kon [10] [M⁻¹ s⁻¹],EC50 [11] [µg/mL]
"BA-087-08-32 (antibody, V domains shown, Detected with anti-human IgG and a molecular weight of 146 kDa was used in SPR, so it was tested as a whole IgG; also called BA-087-08-032; BA-087-08-32 (# 6978)) VH: EVQLVQSGAEVKKPGATVKISCKVSGFTFSHYTMHWIRQSPSRGLEWLGFISYDGNYKYYADSVKGRFTISRDNAKNSLYLQMNSLRAEDTAVYYCARTGWLGPFDYWGQGTLVTVSS VL: EIVMTQSPATLSVSPGERATLSCRASQSVGSSYLAWYQQKPGKAPKLLIYGAFSRATGVPSRFSGSGSGTDFTLTISSLQPEDFATYYCQQDGSSPWTFGQGTKVEIK",5.95,0.403,9.78,0.365,0.0012,3.29e+06,0.014,0.567,1.14,0.0123,0.456,45.2,0.0166,519000,–
"BA-087-05-19 (antibody, V domains shown, Detected with anti-human IgG and a molecular weight of 146 kDa was used in SPR, so it was tested as a whole IgG; also called BA-087-05-019; BA-087-05-19 (# 6972)) VH: EVQLVESGGGLVQPGGSLRLSCAASGFTFSHYTMHWVRQAPGKGLEWVSFISYDGNNKYYADSVKGRFTISRDNSKNTLYLQMNSLRAEDTAVYYCARTGWLGPFDYWGQGTLVTVSS VL: AIQLTQSPSSLSASVGDRVTITCRASQYVGSSYLAWYLQKPGQSPQLLIYGAFSRATGIPARFSGSGSGTEFTLTISSLQSEDFAVYYCQQDGSSPWTFGQGTKVEIK",1.96,0.316,8.18,0.472,0.000631,1.34e+06,–,0.745,–,–,0.592,1.1,0.000958,869000,0.0758
